Measured values as given in patent publication US20050260595A1.

Columns and labels:
[1] = molecular target: human adenosine A2a receptor protein (human) (UniProt P29274); experiment: cell-based or functional assay
[2] = molecular target: human dopamine D1 receptor protein (human) (UniProt P21728); experiment: cell-based or functional assay
Sequence of human dopamine D1 receptor protein (human) (P21728 whole entry): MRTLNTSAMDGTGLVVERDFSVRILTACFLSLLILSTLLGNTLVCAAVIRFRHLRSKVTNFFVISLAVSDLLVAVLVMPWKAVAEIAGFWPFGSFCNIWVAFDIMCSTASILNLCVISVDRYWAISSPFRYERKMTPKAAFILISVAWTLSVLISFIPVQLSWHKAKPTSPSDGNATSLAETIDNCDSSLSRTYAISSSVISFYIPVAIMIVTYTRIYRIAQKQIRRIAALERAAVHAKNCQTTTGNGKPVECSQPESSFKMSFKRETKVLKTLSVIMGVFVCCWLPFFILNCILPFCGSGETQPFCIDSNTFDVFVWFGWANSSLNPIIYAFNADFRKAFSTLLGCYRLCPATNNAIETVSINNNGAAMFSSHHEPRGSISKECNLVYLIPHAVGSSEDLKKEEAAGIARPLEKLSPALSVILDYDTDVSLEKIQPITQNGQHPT

Sequence of human adenosine A2a receptor protein (human) (P29274 whole entry): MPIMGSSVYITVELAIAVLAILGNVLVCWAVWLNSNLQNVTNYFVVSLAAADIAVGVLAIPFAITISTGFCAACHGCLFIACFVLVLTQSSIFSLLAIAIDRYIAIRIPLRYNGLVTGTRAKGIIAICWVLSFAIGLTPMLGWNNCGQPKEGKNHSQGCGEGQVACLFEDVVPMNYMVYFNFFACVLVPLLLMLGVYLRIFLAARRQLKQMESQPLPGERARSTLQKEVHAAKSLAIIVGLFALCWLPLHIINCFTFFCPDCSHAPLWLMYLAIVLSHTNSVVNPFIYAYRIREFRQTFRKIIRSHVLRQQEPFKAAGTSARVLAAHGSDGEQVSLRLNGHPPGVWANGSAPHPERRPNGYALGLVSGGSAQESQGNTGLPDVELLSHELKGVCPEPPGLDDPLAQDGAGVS

human Gm1 protein showed a cAMP level (HitHunter ECF cyclic AMP chemiluminescent assay; CHO cells co-expressing Gm1 and adenosine A2a receptor, 10 µM adenosine; cells expressing only the A2a receptor = 100%, no contact = 0%) [1] of 134% and a cAMP level (HitHunter ECF cyclic AMP chemiluminescent assay; CHO cells co-expressing Gm1 and dopamine D1 receptor, 10 µM dopamine; cells expressing only the D1 receptor = 100%, no contact = 0%) [2] of 127%.
